The values that follow are results of earlier work, collected in article PMC7246992.

The target in data set [1] is linear ubiquitin (Homo sapiens) (UniProt P0CG48).
The target is the same in data set [2]. This is another data set of the same source.

Like-named read-outs stand apart in the source and are kept apart here.

optineurin UBAN, sequence (Q96CV9 416-510): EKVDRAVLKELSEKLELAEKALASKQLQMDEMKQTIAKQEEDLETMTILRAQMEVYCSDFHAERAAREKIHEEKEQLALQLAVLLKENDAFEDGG
A20 ZF7, sequence (P21580 756-790): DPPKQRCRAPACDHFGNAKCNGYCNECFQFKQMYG

Broadly, the Kd is a measure of binding affinity in units of concentration. As to A20 ZF7 (from UniProt P21580), in data set [1], the equilibrium dissociation constant (Kd) is 9 µM.

As to optineurin UBAN (from UniProt Q96CV9), the Kd in data set [2] is 1 µM.
